Experimental data taken from publication PMC10058814, “Identification of a Thermostable Levansucrase from Pseudomonas orientalis That Allows Unique Product Specificity at Different Temperatures” (Polymers, 2023).

Substrate: OC[C@H]1O[C@@](CO)(O[C@H]2O[C@H](CO)[C@@H](O)[C@H](O)[C@H]2O)[C@@H](O)[C@@H]1O
Experiment: kinetics of glucose and fructose release; nonlinear Michaelis-Menten fit
Format: biochemical, Celerinatantimonas diazotrophica
Conditions: hydrolysis reaction; assay conditions for Cedi-LS not stated separately
Description: kinetics of glucose and fructose release; nonlinear Michaelis-Menten fit on Cedi-LS

B1: Cedi-LS (Celerinatantimonas diazotrophica) (protein)
chain: MTLQDKVMTTAWSRADALKVHADDPTTTQPEVSISFPTMDENLFIWDTLPLRTLDGSIVSVDGWSVIFTLTAIKDPETYKNADGSYDITTDWENRHGRARIYYWYAKDSKNWILGGRVMREGVSPTTREWAGTPILLNDQGDIELYYTCVTPGATIAKVRGKITTTENAVELSEFDHVTELFSADGFYYQTEEQNQFWNFRDPSPFIDPKDGRLYMVFEGNVAGNRGSHEITTTDMGDVPPGYSDVGGARYQAGCIGLAVATDTDGNNWQLLPPLITAVGVNDQTERPHFVFKDGKYYLFTISHKYTYADGLTGPDGVYGFVSDSLFGPYQPLNGSGLVLGNPSSQPFQTYSHCVMPNGLVTSFIDSVPSTSDDDYDGDYRIGGTEAPTVQIKLEGNQTFMVKEFDYGFIPPMKNIVLQ
notes: recombinant levansucrase from the authors' earlier work; construct not described here
Km: 57 ± 2 mM | kcat: 332 ± 22 s⁻¹ | kcat/Km: 5800 M⁻¹ s⁻¹
